Assay results reported in US20110306057A1 (Dana-Farber, published 2011).

T1: PP2A regulatory subunit B55α (human (endogenous in human HEK TER …, UniProt P63151 2-447, limits assumed))
T1 construct: Endogenous protein found in anti-FLAG immune complexes by immunoblot
T1 sequence (looked up): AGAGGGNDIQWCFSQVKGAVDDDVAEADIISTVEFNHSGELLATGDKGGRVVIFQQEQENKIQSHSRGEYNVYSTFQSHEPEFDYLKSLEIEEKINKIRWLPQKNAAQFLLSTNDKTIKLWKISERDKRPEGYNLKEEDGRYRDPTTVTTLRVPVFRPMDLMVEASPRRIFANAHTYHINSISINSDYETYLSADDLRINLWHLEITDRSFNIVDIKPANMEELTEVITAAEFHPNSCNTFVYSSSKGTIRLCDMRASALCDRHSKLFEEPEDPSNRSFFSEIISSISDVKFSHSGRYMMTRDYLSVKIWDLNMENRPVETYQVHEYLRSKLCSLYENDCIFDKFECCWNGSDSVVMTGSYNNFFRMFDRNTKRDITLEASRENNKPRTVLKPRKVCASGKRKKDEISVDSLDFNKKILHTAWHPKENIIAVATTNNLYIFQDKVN


Key:
[1] = molecular target: T2, PP2A regulatory subunit B56ε (human (endogenous in human HEK TER …, UniProt Q16537 2-467, limits assumed)); assay: anti-FLAG co-IP from HEK TER cells, immunoblot, densitometry; +++ >90%, ++ 50-90%, + <50%
T2 construct: Endogenous protein found in anti-FLAG immune complexes by immunoblot
T2 sequence (Q16537 2-467 limits assumed): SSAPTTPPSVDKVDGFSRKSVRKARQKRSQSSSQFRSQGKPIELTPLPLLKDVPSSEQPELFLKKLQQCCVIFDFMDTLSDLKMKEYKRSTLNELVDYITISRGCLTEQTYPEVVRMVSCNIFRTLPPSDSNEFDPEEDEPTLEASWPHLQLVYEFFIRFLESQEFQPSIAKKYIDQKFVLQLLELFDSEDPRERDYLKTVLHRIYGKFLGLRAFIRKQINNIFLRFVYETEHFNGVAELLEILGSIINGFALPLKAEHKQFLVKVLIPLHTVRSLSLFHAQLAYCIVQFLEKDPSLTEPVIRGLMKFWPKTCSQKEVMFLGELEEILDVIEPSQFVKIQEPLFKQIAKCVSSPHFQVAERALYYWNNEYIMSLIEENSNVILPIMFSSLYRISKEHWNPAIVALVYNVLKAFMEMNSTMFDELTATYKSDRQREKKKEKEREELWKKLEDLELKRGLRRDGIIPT

[2] = molecular target: T1, PP2A regulatory subunit B55α; assay: as above
[3] = molecular target: T3, PP2A regulatory subunit B56α (human (endogenous in human HEK TER …, UniProt Q15172 2-486, limits assumed)); assay: as above
T3 construct: Endogenous protein found in anti-FLAG immune complexes by immunoblot
T3 sequence (Q15172 2-486 limits assumed): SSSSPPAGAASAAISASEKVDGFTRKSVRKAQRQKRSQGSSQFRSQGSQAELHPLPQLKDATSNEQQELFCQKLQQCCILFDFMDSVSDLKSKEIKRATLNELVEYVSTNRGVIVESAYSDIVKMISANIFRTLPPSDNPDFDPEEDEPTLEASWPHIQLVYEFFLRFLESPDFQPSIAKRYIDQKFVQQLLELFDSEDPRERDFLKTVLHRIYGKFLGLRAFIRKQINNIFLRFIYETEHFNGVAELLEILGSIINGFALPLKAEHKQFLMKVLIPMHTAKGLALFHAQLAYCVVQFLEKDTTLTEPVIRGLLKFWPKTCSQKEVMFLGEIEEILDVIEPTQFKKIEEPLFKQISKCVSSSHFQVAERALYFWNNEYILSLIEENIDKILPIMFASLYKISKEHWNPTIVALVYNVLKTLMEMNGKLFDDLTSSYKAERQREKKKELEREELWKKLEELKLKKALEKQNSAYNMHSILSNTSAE

[4] = molecular target: T4, PP2A catalytic subunit Cα (human (endogenous in human HEK TER or …, UniProt P67775 1-309)); assay: as above
T4 construct: Endogenous protein found in anti-FLAG immune complexes by immunoblot or mass spectroscopy; also called PP2A catalytic Cα
T4 sequence (P67775 whole entry): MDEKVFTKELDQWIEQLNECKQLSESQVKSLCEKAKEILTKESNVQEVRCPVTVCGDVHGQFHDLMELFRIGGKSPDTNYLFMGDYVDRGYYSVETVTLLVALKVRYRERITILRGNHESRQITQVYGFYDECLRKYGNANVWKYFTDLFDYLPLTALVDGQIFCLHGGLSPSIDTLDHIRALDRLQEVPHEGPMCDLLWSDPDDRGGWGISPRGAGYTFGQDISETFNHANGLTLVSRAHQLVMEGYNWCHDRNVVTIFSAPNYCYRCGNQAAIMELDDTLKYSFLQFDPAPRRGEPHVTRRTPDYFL

[5] = molecular target: PP2A regulatory subunit B56γ (human (endogenous in human HEK TER …, UniProt Q13362 1-524)); assay: anti-FLAG co-IP from HEK TER cells, immunoblot, densitometry
Chain of PP2A regulatory subunit B56γ (human (Q13362 whole entry): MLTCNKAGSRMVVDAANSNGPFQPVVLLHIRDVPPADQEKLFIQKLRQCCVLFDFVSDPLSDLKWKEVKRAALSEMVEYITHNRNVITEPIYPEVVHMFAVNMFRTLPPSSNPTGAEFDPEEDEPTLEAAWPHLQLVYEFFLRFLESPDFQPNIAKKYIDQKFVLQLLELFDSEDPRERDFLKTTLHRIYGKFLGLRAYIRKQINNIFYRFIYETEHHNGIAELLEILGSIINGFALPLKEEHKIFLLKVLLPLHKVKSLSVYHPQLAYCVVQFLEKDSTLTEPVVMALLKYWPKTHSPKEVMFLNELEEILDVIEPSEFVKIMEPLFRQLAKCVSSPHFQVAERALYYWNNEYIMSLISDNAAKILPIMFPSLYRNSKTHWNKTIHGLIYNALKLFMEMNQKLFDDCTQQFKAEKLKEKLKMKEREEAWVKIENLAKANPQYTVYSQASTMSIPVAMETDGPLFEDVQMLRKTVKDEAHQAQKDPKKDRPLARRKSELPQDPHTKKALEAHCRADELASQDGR

Binder | binding level (percent, co-immunoprecipitation densitometry) [1] [%] | binding level (percent, co-immunoprecipitation densitometry) [2] [%] | binding level (percent, co-immunoprecipitation densitometry) [3] [%] | binding level (percent, co-immunoprecipitation densitometry) [4] [%] | binding result [5]
wild type (WT) FLAG epitope-tagged version of PP2A Aβ (other, UniProt P30154 1-601, looked up, not shown: small tags and cut ends, also called wtPP2A Aβ; FLAG-tagged Aβ) MAGASELGTGPGAAGGDGDDSLYPIAVLIDELRNEDVQLRLNSIKKLSTIALALGVERTRSELLPFLTDTIYDEDEVLLALAEQLGNFTGLVGGPDFAHCLLPPLENLATVEETVVRDKAVESLRQISQEHTPVALEAYFVPLVKRLASGDWFTSRTSACGLFSVCYPRASNAVKAEIRQQFRSLCSDDTPMVRRAAASKLGEFAKVLELDSVKSEIVPLFTSLASDEQDSVRLLAVEACVSIAQLLSQDDLETLVMPTLRQAAEDKSWRVRYMVADRFSELQKAMGPKITLNDLIPAFQNLLKDCEAEVRAAAAHKVKELGENLPIEDRETIIMNQILPYIKELVSDTNQHVKSALASVIMGLSTILGKENTIEHLLPLFLAQLKDECPDVRLNIISNLDCVNEVIGIRQLSQSLLPAIVELAEDAKWRVRLAIIEYMPLLAGQLGVEFFDEKLNSLCMAWLVDHVYAIREAATNNLMKLVQKFGTEWAQNTIVPKVLVMANDPNYLHRMTTLFCINALSEACGQEITTKQMLPIVLKMAGDQVANVRFNVAKSLQKIGPILDTNALQGEVKPVLQKLGQDEDMDVKYFAQEAISVLALA | > 90 | > 90 | > 90 | > 90 | –
cancer-derived FLAG-tagged PP2A Aβ mutant V448A (other, UniProt P30154 1-601, looked up, not shown: small tags and cut ends, Overexpressed in HEK TER cells) MAGASELGTGPGAAGGDGDDSLYPIAVLIDELRNEDVQLRLNSIKKLSTIALALGVERTRSELLPFLTDTIYDEDEVLLALAEQLGNFTGLVGGPDFAHCLLPPLENLATVEETVVRDKAVESLRQISQEHTPVALEAYFVPLVKRLASGDWFTSRTSACGLFSVCYPRASNAVKAEIRQQFRSLCSDDTPMVRRAAASKLGEFAKVLELDSVKSEIVPLFTSLASDEQDSVRLLAVEACVSIAQLLSQDDLETLVMPTLRQAAEDKSWRVRYMVADRFSELQKAMGPKITLNDLIPAFQNLLKDCEAEVRAAAAHKVKELGENLPIEDRETIIMNQILPYIKELVSDTNQHVKSALASVIMGLSTILGKENTIEHLLPLFLAQLKDECPDVRLNIISNLDCVNEVIGIRQLSQSLLPAIVELAEDAKWRVRLAIIEYMPLLAGQLGAEFFDEKLNSLCMAWLVDHVYAIREAATNNLMKLVQKFGTEWAQNTIVPKVLVMANDPNYLHRMTTLFCINALSEACGQEITTKQMLPIVLKMAGDQVANVRFNVAKSLQKIGPILDTNALQGEVKPVLQKLGQDEDMDVKYFAQEAISVLALA | < 50 | < 50 | – | – | no binding
cancer-derived FLAG-tagged PP2A Aβ mutant L101P/V448A (other, UniProt P30154 1-601, looked up, not shown: small tags and cut ends, Overexpressed in HEK TER cells) MAGASELGTGPGAAGGDGDDSLYPIAVLIDELRNEDVQLRLNSIKKLSTIALALGVERTRSELLPFLTDTIYDEDEVLLALAEQLGNFTGLVGGPDFAHCPLPPLENLATVEETVVRDKAVESLRQISQEHTPVALEAYFVPLVKRLASGDWFTSRTSACGLFSVCYPRASNAVKAEIRQQFRSLCSDDTPMVRRAAASKLGEFAKVLELDSVKSEIVPLFTSLASDEQDSVRLLAVEACVSIAQLLSQDDLETLVMPTLRQAAEDKSWRVRYMVADRFSELQKAMGPKITLNDLIPAFQNLLKDCEAEVRAAAAHKVKELGENLPIEDRETIIMNQILPYIKELVSDTNQHVKSALASVIMGLSTILGKENTIEHLLPLFLAQLKDECPDVRLNIISNLDCVNEVIGIRQLSQSLLPAIVELAEDAKWRVRLAIIEYMPLLAGQLGAEFFDEKLNSLCMAWLVDHVYAIREAATNNLMKLVQKFGTEWAQNTIVPKVLVMANDPNYLHRMTTLFCINALSEACGQEITTKQMLPIVLKMAGDQVANVRFNVAKSLQKIGPILDTNALQGEVKPVLQKLGQDEDMDVKYFAQEAISVLALA | < 50 | – | – | – | no binding
cancer-derived FLAG-tagged PP2A Aβ mutant K343E (other, UniProt P30154 1-601, looked up, not shown: small tags and cut ends, Overexpressed in HEK TER cells) MAGASELGTGPGAAGGDGDDSLYPIAVLIDELRNEDVQLRLNSIKKLSTIALALGVERTRSELLPFLTDTIYDEDEVLLALAEQLGNFTGLVGGPDFAHCLLPPLENLATVEETVVRDKAVESLRQISQEHTPVALEAYFVPLVKRLASGDWFTSRTSACGLFSVCYPRASNAVKAEIRQQFRSLCSDDTPMVRRAAASKLGEFAKVLELDSVKSEIVPLFTSLASDEQDSVRLLAVEACVSIAQLLSQDDLETLVMPTLRQAAEDKSWRVRYMVADRFSELQKAMGPKITLNDLIPAFQNLLKDCEAEVRAAAAHKVKELGENLPIEDRETIIMNQILPYIEELVSDTNQHVKSALASVIMGLSTILGKENTIEHLLPLFLAQLKDECPDVRLNIISNLDCVNEVIGIRQLSQSLLPAIVELAEDAKWRVRLAIIEYMPLLAGQLGVEFFDEKLNSLCMAWLVDHVYAIREAATNNLMKLVQKFGTEWAQNTIVPKVLVMANDPNYLHRMTTLFCINALSEACGQEITTKQMLPIVLKMAGDQVANVRFNVAKSLQKIGPILDTNALQGEVKPVLQKLGQDEDMDVKYFAQEAISVLALA | 50 to 90 | 50 to 90 | < 50 | < 50 | no binding
cancer-derived FLAG-tagged PP2A Aβ mutant L101P (other, UniProt P30154 1-601, looked up, not shown: small tags and cut ends, Overexpressed in HEK TER cells) MAGASELGTGPGAAGGDGDDSLYPIAVLIDELRNEDVQLRLNSIKKLSTIALALGVERTRSELLPFLTDTIYDEDEVLLALAEQLGNFTGLVGGPDFAHCPLPPLENLATVEETVVRDKAVESLRQISQEHTPVALEAYFVPLVKRLASGDWFTSRTSACGLFSVCYPRASNAVKAEIRQQFRSLCSDDTPMVRRAAASKLGEFAKVLELDSVKSEIVPLFTSLASDEQDSVRLLAVEACVSIAQLLSQDDLETLVMPTLRQAAEDKSWRVRYMVADRFSELQKAMGPKITLNDLIPAFQNLLKDCEAEVRAAAAHKVKELGENLPIEDRETIIMNQILPYIKELVSDTNQHVKSALASVIMGLSTILGKENTIEHLLPLFLAQLKDECPDVRLNIISNLDCVNEVIGIRQLSQSLLPAIVELAEDAKWRVRLAIIEYMPLLAGQLGVEFFDEKLNSLCMAWLVDHVYAIREAATNNLMKLVQKFGTEWAQNTIVPKVLVMANDPNYLHRMTTLFCINALSEACGQEITTKQMLPIVLKMAGDQVANVRFNVAKSLQKIGPILDTNALQGEVKPVLQKLGQDEDMDVKYFAQEAISVLALA | > 90 | < 50 | – | – | no binding
cancer-derived FLAG-tagged PP2A Aβ mutant D504G (other, UniProt P30154 1-601, looked up, not shown: small tags and cut ends, Overexpressed in HEK TER cells) MAGASELGTGPGAAGGDGDDSLYPIAVLIDELRNEDVQLRLNSIKKLSTIALALGVERTRSELLPFLTDTIYDEDEVLLALAEQLGNFTGLVGGPDFAHCLLPPLENLATVEETVVRDKAVESLRQISQEHTPVALEAYFVPLVKRLASGDWFTSRTSACGLFSVCYPRASNAVKAEIRQQFRSLCSDDTPMVRRAAASKLGEFAKVLELDSVKSEIVPLFTSLASDEQDSVRLLAVEACVSIAQLLSQDDLETLVMPTLRQAAEDKSWRVRYMVADRFSELQKAMGPKITLNDLIPAFQNLLKDCEAEVRAAAAHKVKELGENLPIEDRETIIMNQILPYIKELVSDTNQHVKSALASVIMGLSTILGKENTIEHLLPLFLAQLKDECPDVRLNIISNLDCVNEVIGIRQLSQSLLPAIVELAEDAKWRVRLAIIEYMPLLAGQLGVEFFDEKLNSLCMAWLVDHVYAIREAATNNLMKLVQKFGTEWAQNTIVPKVLVMANGPNYLHRMTTLFCINALSEACGQEITTKQMLPIVLKMAGDQVANVRFNVAKSLQKIGPILDTNALQGEVKPVLQKLGQDEDMDVKYFAQEAISVLALA | > 90 | 50 to 90 | > 90 | < 50 | no binding
cancer-derived FLAG-tagged PP2A Aβ mutant ΔE344-E388 (other, Deletion of exon 9, in-frame deletion of 45 amino acids; Overexpressed in HEK TER cells; also called D344-388) MDYKDDDDKAGASELGTGPGAAGGDGDDSLYPIAVLIDELRNEDVQLRLNSIKKLSTIALALGVERTRSELLPFLTDTIYDEDEVLLALAEQLGNFTGLVGGPDFAHCLLPPLENLATVEETVVRDKAVESLRQISQEHTPVALEAYFVPLVKRLASGDWFTSRTSACGLFSVCYPRASNAVKAEIRQQFRSLCSDDTPMVRRAAASKLGEFAKVLELDSVKSEIVPLFTSLASDEQDSVRLLAVEACVSIAQLLSQDDLETLVMPTLRQAAEDKSWRVRYMVADRFSELQKAMGPKITLNDLIPAFQNLLKDCEAEVRAAAAHKVKELGENLPIEDRETIIMNQILPYIKCPDVRLNIISNLDCVNEVIGIRQLSQSLLPAIVELAEDAKWRVRLAIIEYMPLLAGQLGVEFFDEKLNSLCMAWLVDHVYAIREAATNNLMKLVQKFGTEWAQNTIVPKVLVMANDPNYLHRMTTLFCINALSEACGQEITTKQMLPIVLKMAGDQVANVRFNVAKSLQKIGPILDTNALQGEVKPVLQKLGQDEDMDVKYFAQEAISVLALA | – | – | – | – | no binding
